Results as given in patent US20240181006A1, “POLYPEPTIDES BINDING ADAMTS5, MMP13 AND AGGRECAN” (Merck Patent GmbH, priority 2017, published 2024).

Tests used:
bovine ADAMTS5 = assay: SPR-based off-rate analysis, bovine ADAMTS5; type: binding; settings: Experiment 3
Protocol: (§1) Species cross-reactivity was initially evaluated via SPR-based off-rate analysis on a Biacore T100 instrument. Polypeptides were tested for binding to human, cynomolgus monkey (“cyno”), guinea pig, mouse, and bovine ADAMTS5. To this end, recombinant ADAMTS5 was immobilized onto a CM5 chip via amine coupling using EDC and NHS. Purified ISVD 02F03 was injected for 2 minutes at a concentration of 100 nM and allowed to dissociate for 15 min at a flow rate of 45 μl/min. Off-rate for each individual ADAMTS5 was determined by fitting a 1:1 interaction model (Langmuir model) onto the individual dissociation curves using the BIA Evaluation software. As a reference, off-rates on human ADAMTS5 were determined in each experiment.

[1] = test system: bovine cartilage explant chips; assay: bovine cartilage explant assay, IL-1α induced GAG release (02F03); type: cell-based
Protocol: In addition, ISVD 02F03 was further evaluated for its ability to block cartilage degradation in an ex vivo assay, in which the substrate is presented in a condition closer to the physiological condition compared to biochemical assays. In brief, bovine cartilage explant chips (diameter 4 mm) were prepared freshly from cow knee joints and incubated in 96-well plates in presence of IL-1α to induce cartilage degradation. As a measure of cartilage/Aggrecan degradation, the release of glycosaminoglycan (GAG) was detected in the supernatant after 5 days of incubation (37° C., 7.5% C02) via the metachromatic dye 1,9 dimethylmethylene blue ([…] at 633 nm). Chondroitin sulphate was included as assay standard. Efficacy was defined by means of the IL-1α-induced controls without compound (0%) and in presence of MSC2310852A (100% effect).

[2] = test system: cynomolgus monkey ADAMTS5; assay: SPR-based off-rate analysis, cynomolgus ADAMTS5; type: binding; settings: Experiment 1
Protocol: as §1

human MMP1 = biological target: T1, human MMP1 (Homo sapiens, UniProt P03956); assay: FRET-based human MMP1 assay (selectivity of 02F03); type: biochemical; settings: data not shown
T1 sequence (P03956 100-469): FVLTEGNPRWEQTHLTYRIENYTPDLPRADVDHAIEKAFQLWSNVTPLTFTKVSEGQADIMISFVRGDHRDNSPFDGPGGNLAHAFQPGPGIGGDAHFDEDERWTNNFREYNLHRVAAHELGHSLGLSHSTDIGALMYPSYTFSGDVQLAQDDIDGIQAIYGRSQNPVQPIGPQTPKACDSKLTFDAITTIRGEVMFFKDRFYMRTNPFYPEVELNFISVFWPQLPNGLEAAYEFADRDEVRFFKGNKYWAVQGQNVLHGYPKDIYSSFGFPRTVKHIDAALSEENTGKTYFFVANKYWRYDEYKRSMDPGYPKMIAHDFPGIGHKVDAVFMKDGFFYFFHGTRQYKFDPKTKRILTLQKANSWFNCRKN
Protocol: (§2) To confirm the selectivity of ISVD 02F03 for ADAMTS5, inhibition of the enzymatic activity of MMP1, MMP14 and ADAMTS4 was evaluated via FRET-based assays and a human ADAMTS4 AlphaLISA, with the respective enzymes.
(§3) Activated human MMP1 or MMP14 was incubated for 30 minutes at room temperature with 10 μl of dilution series of ISVD 02F03. After incubation, 20 μl of respectively 5 μM or 2.5 μM fluorogenic peptide substrate (Mca-PLGL-Dpa-AR-NH2 Fluorogenic MMP Substrate (R&D Systems cat #ES001)) was added. The ability of ISVD 02F03 to prevent MMP1- and MMP14-mediated cleavage was monitored every minute for 2 hours at 37° C. on a Tecan Infinite M1000 plate reader.

human ADAMTS4 = biological target: T2, human ADAMTS4 (Homo sapiens, UniProt O75173); assay: human ADAMTS4 AlphaLISA; type: biochemical; settings: data not shown
T2 construct: purchased R&D Systems 4307-AD
T2 sequence (O75173 213-837): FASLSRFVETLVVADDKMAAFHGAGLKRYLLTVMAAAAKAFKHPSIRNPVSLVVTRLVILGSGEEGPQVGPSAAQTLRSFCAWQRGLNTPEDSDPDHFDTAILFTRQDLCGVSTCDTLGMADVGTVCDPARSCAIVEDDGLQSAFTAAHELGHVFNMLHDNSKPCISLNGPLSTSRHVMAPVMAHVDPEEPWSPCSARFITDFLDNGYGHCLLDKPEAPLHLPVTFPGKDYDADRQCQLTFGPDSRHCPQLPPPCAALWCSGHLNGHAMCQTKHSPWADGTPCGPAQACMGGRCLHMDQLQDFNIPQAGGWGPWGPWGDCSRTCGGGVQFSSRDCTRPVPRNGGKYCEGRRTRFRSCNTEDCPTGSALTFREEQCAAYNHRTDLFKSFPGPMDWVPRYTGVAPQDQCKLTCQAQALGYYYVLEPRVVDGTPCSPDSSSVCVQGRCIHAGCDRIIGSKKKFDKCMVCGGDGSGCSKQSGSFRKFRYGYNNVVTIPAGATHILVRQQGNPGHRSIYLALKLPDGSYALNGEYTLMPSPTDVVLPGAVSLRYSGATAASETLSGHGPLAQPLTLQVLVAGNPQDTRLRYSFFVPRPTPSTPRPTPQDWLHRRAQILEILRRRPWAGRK
Protocol: as §2
To evaluate inhibition of human ADAMTS4, an assay similar to the human ADAMTS5 AlphaLISA was carried out, essentially as described in Example 2.1, but using human ADAMTS4 (R&D Systems, Minneapolis, US; cat #4307-AD). To determine the ability of ISVD 02F03 to prevent human ADAMTS4-mediated cleavage of the substrate, the decrease in signal was analysed in function of ISVD 02F03 concentration and IC50 values were calculated.

human MMP14 = human MMP14 (Homo sapiens, UniProt P50281); assay: FRET-based human MMP14 assay (selectivity of 02F03); type: biochemical; settings: data not shown
Protocol: as §2, §3

B1: ISVD 02F03: immunoglobulin single variable domain which specifically binds ADAMTS5 (protein)
VHH: EVQLVESGGGVVQPGGSLRLSCAASGRTVSSYAMGWFRQAPGKEREFVAGISRSAERTYYVDSLKGRFTISRDNSKNTVYLQMNSLRPEDTALYYCAADLDPNRIFSREEYAYWGQGTLVTVSS
modifications: Description of Artificial Sequence: Synthetic anti-ADAMTS5 immunoglobulin single variable domain (ISVD)
SPR based off-rate, kd, Bovine ADAMTS-5 (bovine ADAMTS5): 4.3e-05 s⁻¹
IC50 ([1]; IL-1α, GAG release after 5 days): 14 nM
IC50 times lower than mAb 12F4 in bovine explant assay ([1]; versus bivalent mAb 12F4): about 50 times
SPR based off-rate, kd, Cyno ADAMTS-5 [2]: 2.2e-05 s⁻¹
inhibition of MMP1 activity (human MMP1): did not show any inhibition
inhibition of human ADAMTS4 activity (human ADAMTS4): did not show any inhibitory activity
inhibition of MMP14 activity (human MMP14): did not show any inhibition
